Results published in the RNAGym collection of RNA variant scans (doi:10.1073/pnas.2313332121).
This sample holds only a part of the variants without activity.

B1: TPR 5TU (parent)
chain: GGAUCUUCUCGAUCUAACAAAAAAGACAAAUCUGCCACAAAGCUUGAGAGCAUCUUCGGAUGCAGAGGCGGCAGCCUUCGGUGGCGCGAUAGCGCCAACGUUCUCAACUAUGACACGCAAAACGCGUGCUCCGUUGAAUGGAGUUUAUCAUG

Variants of: B1
Experiment: polymerase ribozyme fitness, log enrichment relative to wild type (log ratio); higher = more active; in vitro selection for triplet polymerase activity
Outline: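 The heterodimeric triplet polymerase ribozyme's subunits were each mutagenized into PCR-built libraries and transcribed. Every library was selected once, in triplicate, by annealing with a biotinylated primer, the partner subunit and triplets, incubating frozen at −7 °C, gel-excising extended constructs, capturing on streptavidin beads and running RT-PCR. Input and output libraries were Illumina-sequenced, with genotypes kept only at ≥10 input reads and ≥1 read per output. Fitness, from inverse-variance-weighted replicate averages, is the base-2 logarithm of genotype enrichment over wild-type enrichment.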
For GGAUCUUCUCGAUCUAACAAAAAAGACAAAUCUGCCACAAAGCUUGAGAGCAUCUUCGGAUGCAGAGGCGGCAGCCGUCGGUGGCGCGGUAGCGGCAACGUUCUGAAGUAUGACACGCAAAACGCGUGCUCCGUUGAAUGGAGUUUAUCAUG [U77G A89G C95G C105G C108G], the “polymerase ribozyme fitness (log ratio)” value was no more than -4.2.
In the case of GGAUCUUCUCGAUCUAACACAAAAGACAAAUCUGCCACAAAGCUUGAGAGCAUCUUCGGAGGCAGAGGCGGCAGCCUUCGGUGGCGCGAUAGCGCCAACGUUCUCAACUAUCACACGCAAAACGCGUGCUCCGUUGAAUGGAGUUUAUCAUG [A20C U61G G112C], the “polymerase ribozyme fitness (log ratio)” value is reported as no more than -4.2.
In the case of GGAUCUUCUCGAUCUAACAAAAAAGACAAAUCUGCCACAAAGCUUGAGAGCAUCUUCGGAUGCAGAGGCGUCAGCCUUCGGUGGCGCGUUAGCGCCAACGUUCUCAACUAUGACACGCAAAACGCGUGCUCCGUAGAAUGGAGUUUAUCAUG [G71U A89U U135A], the “polymerase ribozyme fitness (log ratio)” value is reported as no more than -4.2.
For GGAUCUUCUCGAUUUAACAAAAAAGACAAAUCUGCCACAAAGCUUGAGAGCAUGUUCGGAUGCAGAGGCGGCAGCCUUCGGUGGCGCGAUAGAGGCAACGUUCUCAACUAUGACACGCAAAACGCGUGCUCCGUUGAAUGGAGUUUAUCGUG [C14U C54G C93A C95G A150G], the “polymerase ribozyme fitness (log ratio)” value was no more than -4.2.
With GGAUCUUCUCGAUCUAACAAAAAAGACAAAUCUACCACAAAGCUUGAGAGCAUCUUCGGAUGCAGAGGCGGCAGCCUUCGGUGGCGCGAUAGCGCCAACGUUCUCAACUAUGACACGCAAAACGCGUGCUCCGUUGAAUAGAGUUUAUCAUG [G34A G140A] the “polymerase ribozyme fitness (log ratio)” value was -3.88.
For GGAUCUUCUCGAUCUAACAAAAAAGACAAAUCUGCCACAAAGCUUGAGAGCAUCUUCGGAUGCAGAGGCGGCAGCAUUCGGUGGCGCGAUAGCGCCAACGUUCUCAACUAUGACACGAAAAACGCGUGCUCCGUUGAAUGGAGUUUAUCAUG [C76A C118A], the “polymerase ribozyme fitness (log ratio)” value was -0.944.
For GGAUCUUCUCGAUCUAACAAAAUAGACAAGUCUGCCACAAAUCUUGAGAGCUUCUACGGAUGCAGAGGCGGGAGCCUUCGGUGGCGCGAUAGCGGCAACGUUCUCAACUAUGAGACGCAAAACGCGUGCUCCGUUGAAAGGAGUUUAUCAUG [A23U A30G G42U A52U U56A C72G C95G C114G U139A], the “polymerase ribozyme fitness (log ratio)” value was no more than -4.2.
For GGAUCGUCUCGAUCUAACAAAAAAGACAAAUCUGCCACAAAGCUUGAGAGUAUCUUCGGAUGCAGAGGCGGCAGCCUUCGGUGACGCGAUAGCGCCAACGUUCUCAACUAUGACACGCAAAACGCGUGCUCCGUUGAAUGGAGUUGAUCAUG [U6G C51U G84A U146G], the “polymerase ribozyme fitness (log ratio)” value was -1.28.
In the case of GGAUCUUCUCGAUCUAACAAAAAAGACAAAUCUGCCACAAAGCUUGAGAGCAUCUUCGGAUGCCGAGGCGACAGCCUUCGGUGGCGCGAUAGCGCCAACGUUCUCAGCUAUGACACGCAAAACGCGUGCUCCGUUGAAUGCAGUUUAUCAUG [A64C G71A A107G G141C], the “polymerase ribozyme fitness (log ratio)” value is reported as no more than -4.2.
With GGACCUUCUCGAUCUCCCAAAAAAGACAAAUCUGCCACAAAGCUUGAGAGCAUCUUCGGAUGCAGAGGCGGCAGCCUUCGGUGGCGCGAUAGCGCCAACGUUCUCAACUAUGACACGCAAAACGCGUGCUCCGUUGAAUGGAGUUUAUCAUG [U4C A16C A17C] the “polymerase ribozyme fitness (log ratio)” value was -0.602.
With GGAUCUUCUCGAUCUAACACAAAAGACAAAUCUGCCACAAAGCUUGAGAGCAUCGUUGGAUGCAGAGGCGGCAGCCUUCGGUGGCGCGAUAGCGCCAACGUUCUCAACUAUGACACGCACAACGCGUGCUCCGUUGAAUGGAGUUUAUCAUG [A20C U55G C57U A120C] the “polymerase ribozyme fitness (log ratio)” value was -0.73.
For GGAUCUUCUCGAUCUAACAAAAAAGACAAAUCUGCCACAAAGCUUGUGAGCAUCUUCGGAUGCAGAGGCGGCAGCCUUCGGUGCCGCGAUAGUGCCAACGUUCUCAACUAUGACACGCAAAACGCGUGCUCCGUUGAAUGGAGUUUAUCAUG [A47U G84C C93U], the “polymerase ribozyme fitness (log ratio)” value was no more than -4.2.
For GGAUCUUCUCGAUCUAACAAAAAAGACAAAUCUGCCACAAAGCUUGAGAGCAUCUACGGAUGCAGAGGCGGCAGCCUUCGGUGGCGCCAUAGCGCCAACGUUCUCAACUAUGACACGCAAAACGCGUGCUCCGUUGAAUGGAGUUUAUCAUG [U56A G88C], the “polymerase ribozyme fitness (log ratio)” value was -4.12.
For GGAUCUUCUCGAUCUAACAAAAAGGACAAAUCUGCCUCAAAGCUUGAGAGCAUCUUCGGAUGCAGAGGCGGCAGCCUUCGGUGGCGCGAUAGCGCCAACGUUCUCAACUAUGACGCGCAAAACGCGUGCCCCGUAGAAUGGAGUUUAUCUUG [A24G A37U A115G U130C U135A A150U], the “polymerase ribozyme fitness (log ratio)” value was no more than -4.2.
In the case of GGAUCUUCUCGAGCUAACAAUCAAGACAAAUCUGCCACAAAGCUUGAGAGCAUCUUCGGAUGCAGAGGCGGCAGCCUUCGGGGGCGCGAUAUCGCCACCGUUCUCAACUAUGACAUGCAAAACGCGUGCUCCGUUGAAUGGAGUUUAUCAUG [U13G A21U A22C U82G G92U A98C C116U], the “polymerase ribozyme fitness (log ratio)” value is reported as -1.59.
For GGAUCUUCUCGAUCUAACAAAAAAGACAAAUCUGCCACAAAGCUUGAGAGCAUCUUCGGAUGCAGAGGCGGCAGCCUUCGGCGGCGCGAUAGCGCCAACGUUCUCAACUAUGAUACGCAAAACGCGUGCUCCGUUGAAUGGAGUUUAUCAUG [U82C C114U], the “polymerase ribozyme fitness (log ratio)” value was -1.99.
With GGAUCUUCUCGAUCUGACAAAAAAGACAAAUGUGCCACAAUGCUUGAGAGCAUCUUCGGAUGCAGAGGCGGCAGCCUUCCGUGGCGCGAUAGCGCCAAUGUUCUCAACUUUGACACGCAAAACGCGAGCUCCGUUGAAUGGAAUUUAUCAUG [A16G C32G A41U G80C C99U A110U U127A G143A] the “polymerase ribozyme fitness (log ratio)” value was no more than -4.2.
With GGAUCUUCUCGAUCUAACAAAAAAGACAAAUCUGCCACUAAGCUUGAGAGCAUCUUCGGAUGCAGAGGCGGCAGCCUUCGGUGGCGCGAUAGCGCCAACGUUCUCAACUAUGACACGCAAAGCGCGUGCUCCGUUGAAUGGAGUGUAUCAUG [A39U A122G U145G] the “polymerase ribozyme fitness (log ratio)” value was -2.48.
With GGAUCUUCUCGAUCUAACAAUAAAGACAAAUCUGCCACAAAGCUUGAGAGCAUCUUUGGAUGCAGAGGCGGCAGCCUUCGGUGGCGCGAUAGGGCCAACGUUCUCAACUAUGACACGCAAAACGCGUGCUCCGUUGAAUGGAGUUUAUCAUG [A21U C57U C93G] the “polymerase ribozyme fitness (log ratio)” value was -3.29.
